Data set [1] has as its target T1, CTLA4.B3.B6.D5 I-OnuI HE variant (Ophiostoma novo-ulmi).
T1 chain: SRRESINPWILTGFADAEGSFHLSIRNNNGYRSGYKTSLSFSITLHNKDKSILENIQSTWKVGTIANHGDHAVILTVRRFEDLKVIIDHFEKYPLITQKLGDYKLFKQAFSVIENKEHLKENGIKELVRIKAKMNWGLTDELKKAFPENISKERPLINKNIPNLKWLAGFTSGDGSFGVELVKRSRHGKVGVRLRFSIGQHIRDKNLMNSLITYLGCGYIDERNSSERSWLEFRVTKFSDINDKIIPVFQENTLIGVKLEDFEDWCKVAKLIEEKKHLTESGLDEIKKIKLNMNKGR
In words: cell_activity; chromosomal iRFP reporter in HEK 293T. As to the method: (§1) The activity of reprogrammed I-OnuI HEs that target exon 2 of the CTLA4 gene was measured using a chromosomally integrated fluorescent reporter system (Certo et. al., 2011). Fully reprogrammed I-OnuI HEs that bind and cleave the CTLA4 target sequence (SEQ ID NO: 13) were cloned into mammalian expression plasmids and then individually transfected into a HEK 293T […] cell line that contained the CTLA4 target sequence upstream of an out-of-frame gene encoding the fluorescent iRFP protein. Cleavage of the embedded target site by the HE and the accumulation of indels following DNA repair via the non-homologous end joining (NHEJ) pathway results in approximately one out of three repaired loci placing the fluorescent reporter gene back “in-frame”. The percentage of iRFP fluorescing HEK 293T cells is therefore used a readout of endonuclease activity at the chromosomally embedded target sequence. […] FIG. 3 (left panel).
(§2) A secondary I-OnuI variant library was generated by performing random mutagenesis on the CTLA4.B3 HE variant (SEQ ID NO: 6). Display-based flow sorting was performed under more stringent cleavage conditions to isolate variants with improved catalytic efficiency. […] FIG. 3 (middle panel). […] FIG. 3 (right panel).

The target in data set [2] is T2, CTLA4.B3.B6 I-OnuI HE variant (Ophiostoma novo-ulmi).
T2 chain: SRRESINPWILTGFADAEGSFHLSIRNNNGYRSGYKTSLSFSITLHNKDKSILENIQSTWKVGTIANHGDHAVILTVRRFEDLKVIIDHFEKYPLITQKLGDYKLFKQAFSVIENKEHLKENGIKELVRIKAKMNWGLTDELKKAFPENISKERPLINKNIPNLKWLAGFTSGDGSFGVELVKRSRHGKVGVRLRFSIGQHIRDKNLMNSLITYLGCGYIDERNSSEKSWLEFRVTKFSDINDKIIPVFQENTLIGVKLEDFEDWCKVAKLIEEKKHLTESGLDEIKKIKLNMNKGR
The data set is described as above. The procedure: as §1, §2

Data set [3] has as its target T1, CTLA4.B3.B6.D5 I-OnuI HE variant. In words: flow; sub-nanomolar affinity; yeast surface affinity titration, value only in figure. The following applies: tags: yeast surface display.

B1: CTLA4 exon 2 HE target site (dsDNA)
DNA 1: TGGAGATGCATACTCACACACA
DNA 2: TGTGTGTGAGTATGCATCTCCA
For the molecule B1, the activity in data set [1] was ~2 fold vs CTLA4.B3.B6; in data set [2], ~3 fold vs CTLA4.B3. In addition, in data set [3], the Kd is < 1 nM.

A word on the Kd: it is the equilibrium constant for the complex coming apart. Read a low Kd as tighter binding.
